According to the supplement of paper PMC10201428:
± gives the standard deviation of the averaged measurements.

B1: library; a variant is named by its letters at N, in order (parent)
chain: AATGTTGTTGATGCAACCATAAAGTGATATTTAATAATTATTTATAATCAGCAACTTAACCACAAAACAACCATATATTGATATNTCACAAAACAACCATAANTTGATATTTTTGTGAATCGAGTATTTCAGCAAAACTACTGCAGTAAGAA

Legend:
[1] = variants of: B1; experiment: relative integration efficiency (T-LR orientation) vs wild-type transposon end (log2 (normalized fold change)); transposon end mutated: left end; higher = more efficient transposition; settings: with VchCAST RNA-guided transposition machinery (E. coli BL21(DE3) host, lacZ target)
Experimental: (§1)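 Pooled, barcoded VchCAST (Tn6677) mini-transposon donor libraries; each variable transposon-end sequence sits in a fixed pDonor mini-transposon context (10-bp barcode and cargo not included). Left- or right-end libraries were co-transformed with pEffector (TniQ-Cascade, TnsABC, lacZ crRNA, T7, 0.1 mM IPTG) into E. coli BL21(DE3) and grown 18 h at 37 C. T-LR and T-RL junction amplicons were sequenced; output/input barcode fold change was normalised to the mean of four wild-type barcodes and log2-transformed. Two biological replicates; zero-count/undetected variants carry floor values (-10 / -15), censored here. Barcode uncoupling by PCR recombination adds noise.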

[2] = variants of: B1; experiment: relative integration efficiency (T-RL orientation) vs wild-type transposon end (log2 (normalized fold change)); transposon end mutated: left end; higher = more efficient transposition; settings: with VchCAST RNA-guided transposition machinery (E. coli BL21(DE3) host, lacZ target)
Experimental: as §1

Variant | relative integration efficiency (log2) [1] | relative integration efficiency (log2) [2]
TA A22T G24T T31C A33C A70C T76A T84A C87A A102T T111C T113C | -0.102 ± 0.33 | -0.168 ± 0.35
CG A21C A75C A101C | -3.75 ± 1.3 | -3.08 ± 0.72
CG A19T T20A | -0.844 ± 0.51 | -1.12 ± 0.56
CG A2T T3A | 0.399 ± 0.43 | 0.191 ± 0.092
CG A15C A69C A95C | -0.511 ± 0.34 | -0.731 ± 0.34
CC T104A | -0.472 ± 0.64 | -0.478 ± 0.0072
TA A23G G24T A33T T76A A77G C87T A96C T110A T113A | -0.603 ± 0.67 | -0.516 ± 0.48
GG | -0.397 ± 0.89 | -0.0172 ± 0.13
CG A1T A2T G4T T5G | -0.165 ± 0.16 | -0.0703 ± 0.2
TA A16C G24T T32G A33C T76A A77G C87T A96C T112G T113C | -0.88 ± 1.2 | -0.489 ± 0.45
TA A22T G24T T31C A33C T76A A77G C87T T104G T113A | -1.13 ± 0.85 | -1.41 ± 0.56
CG A2C T3G G4T T5G | -0.014 ± 0.12 | -0.514 ± 0.095
CA G24A T30A A96C T112G T113C | 0.199 ± 0.4 | 0.0766 ± 0.11
TA T76A T78G C87A T104G T113A | -0.127 ± 0.0086 | -0.3 ± 0.22
CA A102T T111C T113C | 0.118 ± 0.59 | -0.254 ± 0.41
TA A22T G24T T31C A33C T76A T78A T84A C87A A96C T112G T113C | -0.159 ± 0.75 | -0.261 ± 0.33
TA G24A T30A A70C T76A T84A C87A A96C T112G T113C | 0.302 ± 0.58 | 0.326 ± 0.17
CG A16C C17A C18A A19C | -3.65 ± 3.1 | -2.24 ± 0.77
TA A22T G24T T31C A33C T76A T78A T84A C87A T104A T110A T113A | -0.396 ± 0.056 | -0.175 ± 0.33
TA A23G G24T A33T A70C T76A T84A C87A T104G T113A | -0.16 ± 0.29 | -0.158 ± 0.26

Variant | relative integration efficiency (log2) [1] | relative integration efficiency (log2) [2]
CG A11C T12G | -1.34 ± 0.53 | -0.436 ± 0.26
CA A96C T112G T113C | -0.564 ± 0.17 | -0.326 ± 0.1
TA A16C G24T T32G A33C T76A T78G C87A A102T T111C T113C | -0.986 ± 0.79 | -0.362 ± 0.18
TA G24A T30A T76A A77G C87T A96C T112G T113C | -0.263 ± 0.26 | 0.0641 ± 0.26
TA A16C G24T T32G A33C T76A T78A T84A C87A T104G T113A | -0.166 ± 0.52 | -0.296 ± 0.42
CA A16C G24T T32G A33C T104G T113A | -0.783 ± 0.61 | -0.765 ± 0.33
TA A16C G24T T32G A33C A70C T76A T86G T104G T113A | -0.573 ± 0.99 | -0.869 ± 0.48
CG A21C A22C | -1.77 ± 0.64 | -1.82 ± 0.43
TA A16C G24T T32G A33C T76A T78G C87A T104A T110A T113A | -0.325 ± 0.88 | -0.13 ± 0.49
TA T76A A77G C87T T104G T113A | 0.151 ± 0.33 | -0.605 ± 0.42
TG A16C G24T T32G A33C T76A T78A T84A C87A | -0.658 ± 0.78 | -0.572 ± 0.34
TA G24A T30A A70C T76A T86G T104A T110A T113A | -0.21311 ± 4.7e-05 | -0.36 ± 0.27
CC T104A T105A G106C | -2.2109 ± 0.0012 | -1.71 ± 0.67
CC T100A A101T A102T | -0.124 ± 0.68 | -0.77 ± 0.44
CA T104G T113A | -0.00439 ± 0.14 | -0.216 ± 0.19
TA G24A T30A T76A T78A T84A C87A T104G T113A | 0.368 ± 0.38 | -0.186 ± 0.3
TA A16C G24T T32G A33C T76A A77G C87T T104A T110A T113A | -0.782 ± 0.82 | -1.38 ± 0.49
CG A1C A2C T3G G4T T5G | -0.299 ± 0.17 | -0.197 ± 0.14
TA A22T G24T T31C A33C A70C T76A T84A C87A T104A T110A T113A | -0.378 ± 0.91 | -0.553 ± 0.35
TA G24A T30A A70C T76A T86G A102T T111C T113C | -0.456 ± 0.08 | -0.229 ± 0.18

Variant | relative integration efficiency (log2) [1] | relative integration efficiency (log2) [2]
CG A19C T20G | -2.1 ± 1.2 | -2.69 ± 0.82
CC A21T A22T A23T G24C A75T T76A A77T T78A A101T A102T T104A | -2.73 ± 1.6 | -2.03 ± 0.58
CA G24A T30A T104G T113A | -0.317 ± 0.27 | -0.387 ± 0.13
TA A23G G24T A33T A70C T76A T86G T104A T110A T113A | -0.032 ± 0.14 | -0.568 ± 0.3
TA A16C G24T T32G A33C T76A T78A T84A C87A A102T T111C T113C | -0.59 ± 0.77 | -0.405 ± 0.22
TA A23G G24T A33T T76A T78A T84A C87A A96C T112G T113C | -0.309 ± 0.24 | 0.136 ± 0.2
TA A23G G24T A33T A70C T76A T84A C87A A96C T110A T113A | 0.218 ± 0.46 | 0.00966 ± 0.38
TA G24A T30A T76A A77G C87T A96C T110A T113A | 0.553 ± 0.26 | 0.0249 ± 0.25
TA A70C T76A T84A C87A A96C T112G T113C | -0.389 ± 0.085 | -0.122 ± 0.12
CG A16G | -0.395 ± 0.6 | -0.205 ± 0.27
CG A16T | -0.444 ± 0.68 | 0.0359 ± 0.064
CG A16C | -0.374 ± 0.29 | -0.26 ± 0.13
CG A15T A16T C17G C18G | -0.912 ± 0.078 | -0.824 ± 0.58
TA A22T G24T T31C A33C T76A A77G C87T A96C T110A T113A | 0.345 ± 0.28 | -0.753 ± 0.58
TA G24A T30A A70C T76A T84A C87A A96C T110A T113A | 0.37 ± 0.55 | 0.271 ± 0.25
CG A1T A2T T3A G4C | 0.144 ± 0.82 | 0.164 ± 0.1
TA A23G G24T A33T A70C T76A T86G A102T T111C T113C | -0.846 ± 0.11 | -0.375 ± 0.19
TA A23G G24T A33T T76A T78G C87A T104G T113A | 0.453 ± 0.52 | -0.0355 ± 0.21
